Source: patent US20240218060A1 (Hoffmann-La Roche, published 2024)

Target: T1, human neonatal Fc-receptor (FcRn) (human, UniProt P55899 24-297; P61769 21-119)
T1 construct: also called human FcRn; huFcRn
Assay: SPR (BIAcore T100), FcRn immobilised on a CM5 chip, 200 nM antibody, PBS 0.05% Tween20 pH 6.0
Procedure: The binding properties of wild-type antibody and the mutants to FcRn were analyzed by surface plasmon resonance (SPR) technology using a BIAcore T100 instrument (BIAcore AB, Uppsala, Sweden). […] In the current assay, the FcRn receptor was immobilized onto a BIAcore CM5-biosensor chip (GE Healthcare Bioscience, Uppsala, Sweden) via amine coupling to a level of 400 Response units (RU). The assay was carried out at room temperature with PBS, 0.05% Tween20 pH 6.0 (GE Healthcare Bioscience) as running and dilution buffer. 200 nM of samples were injected at a flow rate of 50 μL/min at room temperature. Association time was 180 sec., dissociation phase took 360 sec. Regeneration of the chip surface was reached by a short injection of HBS-P, pH 8.0. Evaluation of SPR-data was performed by comparison of the biological response signal height at 180 sec. after injection and at 300 sec. after injection. The corresponding parameters are the RU max level (180 sec. after injection) and late stability (300 sec. after end of injection).

binding result: binds
B1: YTE-mutant of anti-IGF-1R antibody (antibody, human IgG1, kappa)
light: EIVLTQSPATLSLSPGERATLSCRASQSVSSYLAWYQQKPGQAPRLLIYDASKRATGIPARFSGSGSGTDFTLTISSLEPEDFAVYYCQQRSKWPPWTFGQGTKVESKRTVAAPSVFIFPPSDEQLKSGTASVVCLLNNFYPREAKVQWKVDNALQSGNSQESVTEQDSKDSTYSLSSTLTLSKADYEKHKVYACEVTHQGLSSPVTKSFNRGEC
heavy: QVELVESGGGVVQPGRSQRLSCAASGFTFSSYGMHWVRQAPGKGLEWVAIIWFDGSSTYYADSVRGRFTISRDNSKNTLYLQMNSLRAEDTAVYFCARELGRRYFDLWGRGTLVSVSSASTKGPSVFPLAPSSKSTSGGTAALGCLVKDYFPEPVTVSWNSGALTSGVHTFPAVLQSSGLYSLSSVVTVPSSSLGTQTYICNVNHKPSNTKVDKKVEPKSCDKTHTCPPCPAPELLGGPSVFLFPPKPKDTLYITREPEVTCVVVDVSHEDPEVKFNWYVDGVEVHNAKTKPREEQYNSTYRVVSVLTVLHQDWLNGKEYKCKVSNKALPAPIEKTISKAKGQPREPQVYTLPPSRDELTKNQVSLTCLVKGFYPSDIAVEWESNGQPENNYKTTPPVLDSDGSFFLYSKLTVDKSRWQQGNVFSCSVMHEALHNHYTQKSLSLSPG
notes: also called <IGF-1R> IgG1 with M252Y, S254T, T256E; anti-IGF-1R IgG1 with YTE mutation
